Consider three molecules from PMC4785402, “Structure of ThiM from Vitamin B1 biosynthetic pathway of Staphylococcus aureus – Insights into a novel pro-drug approach addressing MRSA infections” (Scientific Reports, 2016).

The Km is the substrate concentration at which the rate is half of its maximum. The kcat is the maximal rate divided by the concentration of active sites.

The subject of data set [1] is Cc1nccn1CCO. Briefly: purified protein. The following applies: 4 mM ATP, 10 mM MgCl2, 50 mM potassium phosphate pH 7.5, 37 °C.
The target in data set [2] is T1, SaThiM (Staphylococcus aureus, UniProt Q6GEY3).
T1 construct: gene thiM; homotrimer, active sites between two monomers
T1 sequence (Q6GEY3 1-263): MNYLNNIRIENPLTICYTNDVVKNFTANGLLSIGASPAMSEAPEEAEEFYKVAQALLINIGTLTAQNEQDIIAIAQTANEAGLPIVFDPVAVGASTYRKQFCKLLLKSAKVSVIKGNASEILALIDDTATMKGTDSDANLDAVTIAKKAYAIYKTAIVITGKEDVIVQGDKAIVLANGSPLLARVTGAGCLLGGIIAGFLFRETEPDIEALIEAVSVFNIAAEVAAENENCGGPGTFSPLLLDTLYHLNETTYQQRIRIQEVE
Briefly: X-ray crystal structure of soaked complex, […] Å. To be noted: Mg2+ in four of the six active sites; active site at monomer interface. Format: binding.

Substrate in data set [3]: Cc1nn(C)c(C)c1CCO
Briefly: purified protein. The following applies: 4 mM ATP, 10 mM MgCl2, 50 mM potassium phosphate pH 7.5, 37 °C.

On to “SaThiM (Staphylococcus aureus subsp. aureus MRSA252)”, for which, in data set [1], the Km was 831 ± 169 µM and the turnover number (kcat) is 3.63 ± 0.05 s⁻¹.

Turning to `Cc1ncsc1CCO` [THZ, 5-(hydroxyethyl)-4-methylthiazole], the “X-ray crystal structure of soaked complex, 1.90 Å” value in data set [2] is listed as “THZ identically occupies all six active sites of the two trimers in the asymmetric unit”.

B1: SaThiM (Staphylococcus aureus subsp. aureus MRSA252) (protein)
chain: MNYLNNIRIENPLTICYTNDVVKNFTANGLLSIGASPAMSEAPEEAEEFYKVAQALLINIGTLTAQNEQDIIAIAQTANEAGLPIVFDPVAVGASTYRKQFCKLLLKSAKVSVIKGNASEILALIDDTATMKGTDSDANLDAVTIAKKAYAIYKTAIVITGKEDVIVQGDKAIVLANGSPLLARVTGAGCLLGGIIAGFLFRETEPDIEALIEAVSVFNIAAEVAAENENCGGPGTFSPLLLDTLYHLNETTYQQRIRIQEVE
With B1, in data set [3], the Km worked out at 834 ± 147 µM and the catalytic constant (kcat) stood at 3.58 ± 0.133 s⁻¹.
